The values below come from patent US20160244527A1 (AFFITECH RESEARCH, published 2016).

For experiment [1], the target named is T1, CXC chemokine receptor 4 (CXCR4), human (human, UniProt P61073 1-352). In words: cell-based or functional assay.
The target of experiment [2] is T1, CXC chemokine receptor 4 (CXCR4), human. As to the kind of experiment: flow cytometry (EasyCyte), IgG1 10 µg/ml on CCRF-CEM cells; PBS negative control 3.11. The procedure: The natural CXCR4⁺ expressing cell line CCRF-CEM was harvested from the culture flasks, washed 2 times with PBS supplemented with 0.2% BSA and 0.09% NaN₃ buffer and aliquoted at 1×10⁵ cells per well into V-shaped 96-well plates (Greiner Bio-One, Frickenhausen, Germany). Cells were pelleted by centrifugation (400 g, 5 min) and then incubated for 60 min at 4° C. with 50 μl IgGs diluted to 10 μg/ml in PBS supplemented with 0.2% BSA and 0.09% NaN₃ buffer. The supernatants were aspirated after a centrifugation step at 400 g for 5 min and the cells were washed another two times with 100 μl PBS supplemented with 0.2% BSA and 0.09% NaN₃ each wash was followed by a centrifugation step (5 min at 400 g). After, the cells were stained for 30 minutes at 4° C. with 50 μl of rPE-conjugated Goat anti-human IgG (AbD Serotec) diluted to 5 μg/ml in with PBS supplemented with 0.2% BSA and 0.09% NaN₃ and incubated for 30 minutes at 4° C. The cells were washed again and re-suspended in 200 μl PBS with 0.2% BSA and 0.09% NaN₃ and transferred to a U-shaped 96-well plate (Corning) for flow cytometry using an EasyCyte device (Guava Technologies, Hayward, Calif., USA).

The target is the same in experiment [3]. As to the kind of experiment: EasyCyte flow cytometry, 0.5 µg scFv on 1x10^5 CXCR4-transfected versus non-transfected HEK293T cells; anti-cMyc and RPE goat anti-mouse IgG detection. In general terms: A flow cytometer gives signals particle by particle.
Method: The DT40+CXCR4, HEK293+CXCR4, DT40 and HEK293 cells were harvested from culture flasks, washed 2 times with PBS (400×g, 5 min, 4° C.) and resuspended in PBS containing 0.2% BSA and 0.09% NaN₃. 1×10⁵ cells per well were aliquoted into V-shaped 96-well plates (Greiner Bio-One, Frikenhausen, Germany). The cells were centrifuged (400×g, 5 min, 4° C.) and resuspended in 50 μl ScFvs (10 μg/ml) in PBS containing 0.2% BSA and 0.09% NaN₃. […] After 1 hour incubation (4° C.), the cells were washed three times with 100 μl PBS with 0.2% BSA and 0.09% NaN₃ and incubated for 30 minutes at 4° C. with RPE conjugated goat anti-mouse IgG (F0479, Dako, Denmark) diluted to 5 μg/ml in PBS with 0.2% BSA and 0.09% NaN₃. Cells were washed, resuspended in 200 μl PBS with 0.2% BSA and 0.09% NaN₃, and transferred to a U-shaped 96 well Costar (Corning, Schiphol-Rijik, The Netherlands) plate for flow cytometry using an Easy Cyte device (Guava Technologies, Hayward, Calif., USA).
The target in experiment [4] is T2, monkey (Macaca mulatta) CXCR4 (monkey (Macaca mulatta), UniProt P79394 1-352).
T2 construct: whole, on cells; also called monkey CXCR4; monkey antigen
T2 sequence (P79394 whole entry): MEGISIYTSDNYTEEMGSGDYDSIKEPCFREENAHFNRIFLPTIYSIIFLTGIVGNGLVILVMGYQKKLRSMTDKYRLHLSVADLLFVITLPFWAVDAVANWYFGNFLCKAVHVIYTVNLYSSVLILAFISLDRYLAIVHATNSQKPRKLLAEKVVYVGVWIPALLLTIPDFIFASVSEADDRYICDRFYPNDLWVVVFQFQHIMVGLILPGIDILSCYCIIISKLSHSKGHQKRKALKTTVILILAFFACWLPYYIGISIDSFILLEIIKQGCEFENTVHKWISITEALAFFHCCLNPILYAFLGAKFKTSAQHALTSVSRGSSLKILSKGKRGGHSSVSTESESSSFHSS
As to the kind of experiment: EasyCyte flow cytometry on HEK293T/17 cells transiently transfected with Macaca mulatta CXCR4, Fugene without DNA as negative control; scFv level according to the example, amount not given. The procedure: FACS-binding analyses (EasyCyte) were performed using HEK-293 cells transiently transfected with plasmids encoding either, mouse (Gene bank accession number BC031665) or monkey (Macaca mulatta) CXCR4 (NCBI Accession number NP_001036110). Two experiments were performed, one using a-cMyc and PE-labelled goat anti-mouse IgG antibody, the second using a directly conjugated RPE-c-Myc antibody for detection. In addition, cross-reactivity on IgG level was analysed. In the latter case, antibody binding was detected with PE-conjugated goat anti-human IgG antibody.

For experiment [5], the target named is T1, CXC chemokine receptor 4 (CXCR4), human. In words: cell-based or functional assay. This is another data set of the same source.
For experiment [6] the target is unchanged. As to the kind of experiment: EasyCyte flow cytometry, IgG titration (12 points, three-fold) on Ramos cells naturally expressing CXCR4; RPE goat anti-human IgG detection.
Method: The cells were harvested from culture flasks, washed 2 times with PBS (350×g, 5 min, 4° C.) and resuspended in PBS containing 0.2% BSA and 0.09% NaN₃. 1×10⁵ cells per well were aliquoted into V-shaped 96-well plates (Greiner Bio-One, Frikenhausen, Germany). The cells were centrifuged (350×g, 5 min, 4° C.) and resuspended in 50 μl IgG (50 μg/ml) in PBS containing 0.2% BSA and 0.09% NaN₃. Titration was done in twelve points and three fold dilution. […] Cells were washed, resuspended in 200 μl PBS with 0.2% BSA and 0.09% NaN₃, and transferred to a U-shaped 96 well Costar (Corning, Schiphol-Rijik, The Netherlands) plate for flow cytometry using an Easy Cyte device (Guava Technologies, Hayward, Calif., USA).

Usually EC50 (read off the curve) stands for the midpoint of the concentration-response curve.

T1 sequence (P61073 whole entry): as the sequence (P79394 whole entry) above, with I24M, H35N, R38K, K146R, S176N, D214V counted along it

B1: B-1M22 IgG1 (antibody, V domains shown)
VH: QVQLVQSGAEVKKPGSSVKVSCKASGGTFSSYAISWVRQAPGQGLEWMGGIIPIFGTANYAQKFQGRVTITADESTSTAYMELRSLRSDDTAVYYCARDRERWLQSAGDYWGQGTLVTVSS
VL: QPVLTQSPSVSVAPGQTARITCGGNNIGSKSVHWYQQKPGQAPVLVVYDDSDRPSGIPERFSGSNSGNTATLTISRVEAGDEADYYCQVWDSSSDHWVFGGGTKLTVLG
notes: Full length human IgG1 with lambda light chain; expressed from pLNO, protein A purified, monomer by SEC; also called IgG B-1M22
B1: in experiment [1], the “ADCC, EC50 (ng/mL), IgG” value was 116 ng/mL; the “ADCC, EC50, IgG, molar” value is 0.8 nM; the “ADCC, Max killing (%), CCRF-CEM cells with human PBMCs, IgG” value (from here on “ADCC, Max killing (%), CCRF-CEM cells”) was determined as 100%. For the same molecule, the “median value (EasyCyte fluorescence)” value in experiment [2] was 1080.

B2: C-1I24 scFv (scFv)
scFv: QVQLVQSGGGVVQPGRSLRLSCAASGFTFSSYGMHWVRQAPGKGLEWVAVISYDGSNKYYADSVKGRFTISRDNSKNTLYLQMNSLRAEDTAVYYCAKDLPITRGTGADYWGQGTLVTVSSKLSGSASAPKLEEGEFSEARVQSVLIQPASVSGSPGQSITISCTGTSSDVGGYNYVSWYQQHPGKAPRLMIYDVTSRPSGVSNRFSGSKSGNTASLTISGLQAEDEADYYCSSYAGSYSVVFGGGTKVTVLAAAGSEQKLISEEDLNSHHHHHH
notes: VH-linker-VL scFv expressed in E. coli TG1 from pHOG21; also called scFv C-1I24; C-1124
As to B2, the binding result in experiment [3] and in experiment [4] was “binds” throughout.

B3: D-1K21 IgG1 (antibody, V domains shown)
VH: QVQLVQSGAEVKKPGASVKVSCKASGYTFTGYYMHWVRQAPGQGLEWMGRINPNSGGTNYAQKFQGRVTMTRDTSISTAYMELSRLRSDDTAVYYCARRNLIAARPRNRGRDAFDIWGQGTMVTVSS
VL: DIQMTQSPSTLSASVGDRVTITCRASQSIGGSLAWYQQKPGKGPNLLIYAASTLQSGVPSRFSGSGSGTEFTLTISSLQPEDSATYYCQHYESYPLSFGGGTKLEIKR
notes: Full length human IgG1 with kappa light chain; expressed from pLNO, protein A purified, monomer by SEC; also called IgG D-1K21
Take B3: in experiment [1], the “ADCC, EC50 (ng/mL), IgG” value stood at 79.9 ng/mL; the “ADCC, EC50, IgG, molar” value is 0.5 nM; the “ADCC, Max killing (%), CCRF-CEM cells” value worked out at 25.7%. Moreover, the “median value (EasyCyte fluorescence)” value in experiment [2] was 179.

B4: B-1M22 scFv (scFv)
scFv: QVQLVQSGAEVKKPGSSVKVSCKASGGTFSSYAISWVRQAPGQGLEWMGGIIPIFGTANYAQKFQGRVTITADESTSTAYMELRSLRSDDTAVYYCARDRERWLQSAGDYWGQGTLVTVSSKLSGSASAPKLEEGEFSEARVQPVLTQSPSVSVAPGQTARITCGGNNIGSKSVHWYQQKPGQAPVLVVYDDSDRPSGIPERFSGSNSGNTATLTISRVEAGDEADYYCQVWDSSSDHWVFGGGTKLTVLAAAGSEQKLISEEDLNSHHHHHH
notes: VH-linker-VL scFv expressed in E. coli TG1 from pHOG21; also called scFv B-1M22
With B4, the binding result in experiment [4] is listed as “binds”.

B5: C-9P21 scFv (scFv)
scFv: QVQLQESGGGLVHPGGSLRLSCAASGFTFSSYWMHWVRQAPGKGLVWVSRINSDGSSTSYADSVKGRFTISRDNAKNTLYLQMNSLRAEDTAVYYCARKILGVGARSRRYFDYWGQGTMVTVSSKLSGSASAPKLEEGEFSEARVETTLTQSPGTLSLSPGERATLSCRASQSVVSNYLAWYQQKPGQAPRLLISGASNRATGISDRFSGSGSGADFTLTISRVEPEDSAVYYCQQFDKSTWTFGQGTKVEIKAAAGSEQKLISEEDLNSHHHHHH
notes: VH-linker-VL scFv expressed in E. coli TG1 from pHOG21; In the migration and ADCC assays it was cross-linked with anti-cMyc antibody; also called scFv C-9P21
B5: in experiment [1], the “ADCC, EC50 (ng/mL), scFv cross-linked with chimeric anti-cMyc IgG1” value is 2.7 ng/mL and the “ADCC, EC50, scFv, molar” value came to 0.09 nM. Besides, the binding result in experiment [4] was “binds”. Also, in experiment [5], the “IC50 of inhibition of SDF-1 induced migration of CCRF-CEM cells (Boyden chamber; scFv cross-linked with anti-cMyc)” value worked out at 2.9 mg/L and the “IC50 of inhibition of ligand induced migration of CCRF-CEM cells, molar” value was around 100 nM.

B6: C-1I24 IgG1 (antibody, V domains shown)
VH: QVQLVQSGGGVVQPGRSLRLSCAASGFTFSSYGMHWVRQAPGKGLEWVAVISYDGSNKYYADSVKGRFTISRDNSKNTLYLQMNSLRAEDTAVYYCAKDLPITRGTGADYWGQGTLVTVSS
VL: QSVLIQPASVSGSPGQSITISCTGTSSDVGGYNYVSWYQQHPGKAPRLMIYDVTSRPSGVSNRFSGSKSGNTASLTISGLQAEDEADYYCSSYAGSYSVVFGGGTKVTVLG
notes: Full length human IgG1 with lambda light chain; expressed from pLNO, protein A purified, monomer by SEC; also called IgG C-1I24; C-1124
Consider B6, for which, in experiment [1], the “ADCC, EC50 (ng/mL), IgG” value was 49.2 ng/mL; the “ADCC, EC50, IgG, molar” value amounted to 0.3 nM; the “ADCC, Max killing (%), CCRF-CEM cells” value stood at 65%. In experiment [2], the “median value (EasyCyte fluorescence)” value amounted to 911. In addition, the “CDC of Ramos cells in presence of human serum, EC50, IgG” value in experiment [5] worked out at 0.7 mg/L.

B7: 9N10 IgG1 (antibody, V domains shown)
VH: QVQLQESGGGLVHPGGSLRLSCAASGFTFSSYWMHWVRQAPGKGLVWVSRINSDGSSTSYADSVKGRFTISRDNAKNTLYLQMNSLRAEDTAVYYCARKILGVGARSRRYFDYWGQGTMVTVSS
VL: DIVLTQTPDSLAVSLGETTTINCKSSQSVLHSSNNKNYLAWYQQKPGQPPKLLIYWASTRESGVPDRFSGSGSGTDFTLTISNLQPEDVAFYYCLQYSTFPRTFGQGTKVEIKR
notes: Full length human IgG1 with kappa light chain
In the case of B7, the concentration for a half-maximal effect (EC50 (read off the curve)) in experiment [6] is around 10 nM. In addition, in experiment [5], the “IC50 of inhibition of SDF-1α induced calcium flux, CCRF-CEM cells, IgG” value was 3.85 nM and the “fold efficiency in inhibition of calcium flux against C-9P21 IgG” value is around 8 fold.

B8: C-9P21 IgG1 (antibody, V domains shown)
VH: B7 VH
VL: ETTLTQSPGTLSLSPGERATLSCRASQSVVSNYLAWYQQKPGQAPRLLISGASNRATGISDRFSGSGSGADFTLTISRVEPEDSAVYYCQQFDKSTWTFGQGTKVEIKR
notes: Full length human IgG1 with kappa light chain; expressed from pLNO, protein A purified, monomer by SEC; also called IgG C-9P21
With B8, in experiment [1], the “ADCC, EC50 (ng/mL), IgG” value turned out to be 1850 ng/mL; the “ADCC, EC50, IgG, molar” value was found to be 12.3 nM; the “ADCC, Max killing (%), CCRF-CEM cells” value was found to be 63.5%. Further, the “median value (EasyCyte fluorescence)” value in experiment [2] was 626. The “IC50 of inhibition of SDF-1α induced calcium flux, CCRF-CEM cells, IgG” value in experiment [5] is 29 nM.
